Measured values taken from the supplement of paper PMC9112550, “Optimization of the antimicrobial peptide Bac7 by deep mutational scanning” (BMC Biology, 2022).

What follows are sequences tested on Escherichia coli TOP10 (assay: shrunken log2 fold change of peptide-encoding DNA abundance (4.5 h post-induction vs induction); higher = less antimicrobial activity (less host growth inhibition)). Conditions: time post-induction: 4.5 h; library: site-saturation at positions 5, 18, 19, 20.
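Note: peptides expressed intracellularly from a pBAD plasmid library in pooled LB shake-flask culture, induced with 0.3% L-arabinose, DNA abundance read by NGS, three biological replicates, DESeq2 with apeglm shrinkage.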

Row | Sequence | shrunken log2 fold change
1 | RRIRIRPPRLPRPRPRPPHEPRP | 0.225
2 | RRIRIRPPRLPRPRPRPPLPPRP | 0.796
3 | RRIRIRPPRLPRPRPRPPMEPRP | -0.0294
4 | RRIRIRPPRLPRPRPRPPMVPRP | -0.572
5 | RRIRIRPPRLPRPRPRPPPYPRP | -0.177
6 | RRIRIRPPRLPRPRPRPPQIPRP | -0.157
7 | RRIRIRPPRLPRPRPRPPRVPRP | 0.278
8 | RRIRIRPPRLPRPRPRPPTGPRP | 0.209
9 | RRIRIRPPRLPRPRPRPPTRPRP | 0.251
10 | RRIRIRPPRLPRPRPRPPTWPRP | -0.101
11 | RRIRIRPPRLPRPRPRPPWAPRP | 0.388
12 | RRIRIRPPRLPRPRPRPPWGPRP | 0.0517
13 | RRIRIRPPRLPRPRPRPPWMPRP | -0.0904
14 | RRIRIRPPRLPRPRPRPPWSPRP | 0.219
15 | RRIRIRPPRLPRPRPRPPYFPRP | -0.25
16 | RRIRIRPPRLPRPRPRPPYVPRP | -0.121
17 | RRIRIRPPRLPRPRPRPQANPRP | 0.00435
18 | RRIRIRPPRLPRPRPRPQCQPRP | -0.153
19 | RRIRIRPPRLPRPRPRPQELPRP | -0.169
20 | RRIRIRPPRLPRPRPRPQEWPRP | -0.0108
21 | RRIRIRPPRLPRPRPRPQFEPRP | -0.0601
22 | RRIRIRPPRLPRPRPRPQHTPRP | -1
23 | RRIRIRPPRLPRPRPRPQIQPRP | -0.235
24 | RRIRIRPPRLPRPRPRPQISPRP | 0.0222
25 | RRIRIRPPRLPRPRPRPQKFPRP | -0.0902

Row | Sequence | shrunken log2 fold change
26 | RRIRIRPPRLPRPRPRPQKYPRP | -0.784
27 | RRIRIRPPRLPRPRPRPQLLPRP | -0.0818
28 | RRIRIRPPRLPRPRPRPQLQPRP | -0.0769
29 | RRIRIRPPRLPRPRPRPQMFPRP | -0.65
30 | RRIRIRPPRLPRPRPRPQNDPRP | -0.296
31 | RRIRIRPPRLPRPRPRPQNFPRP | 0.0159
32 | RRIRIRPPRLPRPRPRPQPMPRP | 0.604
33 | RRIRIRPPRLPRPRPRPQQGPRP | -0.295
34 | RRIRIRPPRLPRPRPRPQQKPRP | 0.0242
35 | RRIRIRPPRLPRPRPRPQQNPRP | -0.318
36 | RRIRIRPPRLPRPRPRPQRGPRP | 0.0568
37 | RRIRIRPPRLPRPRPRPQVIPRP | -0.0417
38 | RRIRIRPPRLPRPRPRPQVVPRP | -0.0262
39 | RRIRIRPPRLPRPRPRPQWKPRP | -0.186
40 | RRIRIRPPRLPRPRPRPQWLPRP | -0.0168
41 | RRIRIRPPRLPRPRPRPQWMPRP | -0.103
42 | RRIRIRPPRLPRPRPRPQYLPRP | -0.346
43 | RRIRIRPPRLPRPRPRPQYMPRP | -1.02
44 | RRIRIRPPRLPRPRPRPRCDPRP | -0.0753
45 | RRIRIRPPRLPRPRPRPRCMPRP | -0.284
46 | RRIRIRPPRLPRPRPRPRCPPRP | 0.0321
47 | RRIRIRPPRLPRPRPRPRCRPRP | -0.164
48 | RRIRIRPPRLPRPRPRPRCYPRP | -0.586
49 | RRIRIRPPRLPRPRPRPRDHPRP | -0.0591
50 | RRIRIRPPRLPRPRPRPRDVPRP | 0.000408

Row | Sequence | shrunken log2 fold change
51 | RRIRIRPPRLPRPRPRPRECPRP | 0.146
52 | RRIRIRPPRLPRPRPRPREIPRP | -0.0162
53 | RRIRIRPPRLPRPRPRPRELPRP | -0.019
54 | RRIRIRPPRLPRPRPRPRFCPRP | -0.00189
55 | RRIRIRPPRLPRPRPRPRFRPRP | 0.0756
56 | RRIRIRPPRLPRPRPRPRGHPRP | -0.114
57 | RRIRIRPPRLPRPRPRPRKIPRP | -0.413
58 | RRIRIRPPRLPRPRPRPRNKPRP | -0.0432
59 | RRIRIRPPRLPRPRPRPRNWPRP | 0.18
60 | RRIRIRPPRLPRPRPRPRPLPRP | 0.181
61 | RRIRIRPPRLPRPRPRPRPYPRP | -0.332
62 | RRIRIRPPRLPRPRPRPRQEPRP | -0.131
63 | RRIRIRPPRLPRPRPRPRQSPRP | 0.065
64 | RRIRIRPPRLPRPRPRPRQWPRP | 0.159
65 | RRIRIRPPRLPRPRPRPRRCPRP | 0.221
66 | RRIRIRPPRLPRPRPRPRRFPRP | -0.00443
67 | RRIRIRPPRLPRPRPRPRRVPRP | -0.0339
68 | RRIRIRPPRLPRPRPRPRSCPRP | 0.16
69 | RRIRIRPPRLPRPRPRPRWFPRP | 0.555
70 | RRIRIRPPRLPRPRPRPRWWPRP | 0.655
71 | RRIRIRPPRLPRPRPRPRYFPRP | -0.769
72 | RRIRIRPPRLPRPRPRPRYTPRP | -0.156
73 | RRIRIRPPRLPRPRPRPSDLPRP | -0.0735
74 | RRIRIRPPRLPRPRPRPSEKPRP | -0.195
75 | RRIRIRPPRLPRPRPRPSEWPRP | 0.151
